These results are taken from PMC3528108.

Read-outs that look alike come from different tables or passages of the source.

Data set [1] addresses T1, GST-TRF2 (human, UniProt Q15554 1-542). Briefly: ELISA.
Data set [2] has as its target T1, GST-TRF2. Put plainly: ELISA. The source holds these as a separate data set. (An ELISA detects its analyte on a solid surface through an enzyme-linked reagent.)

T1 sequence (Q15554 whole entry): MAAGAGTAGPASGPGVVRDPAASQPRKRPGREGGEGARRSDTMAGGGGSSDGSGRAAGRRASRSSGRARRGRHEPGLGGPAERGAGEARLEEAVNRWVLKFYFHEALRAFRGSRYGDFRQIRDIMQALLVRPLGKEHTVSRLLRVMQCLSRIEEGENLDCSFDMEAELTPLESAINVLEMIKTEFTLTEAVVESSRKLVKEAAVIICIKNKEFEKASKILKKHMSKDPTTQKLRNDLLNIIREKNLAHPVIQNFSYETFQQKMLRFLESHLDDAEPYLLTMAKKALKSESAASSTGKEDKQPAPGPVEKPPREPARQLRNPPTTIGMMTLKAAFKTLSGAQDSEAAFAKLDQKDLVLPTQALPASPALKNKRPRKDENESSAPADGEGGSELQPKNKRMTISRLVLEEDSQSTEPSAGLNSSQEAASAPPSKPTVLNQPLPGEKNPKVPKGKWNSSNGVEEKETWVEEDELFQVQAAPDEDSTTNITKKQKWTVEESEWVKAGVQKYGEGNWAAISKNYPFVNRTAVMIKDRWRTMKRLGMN

B1: NRAS RNA G-quadruplex (structured_RNA)
RNA: AGGGAGGGGCGGGUCUGGG
Take B1: the binding result with GST-TRF2 [1] is reported as “binds”.

B2: BCL2 RNA G-quadruplex (structured_RNA)
RNA: AGGGGGCCGUGGGGUGGGAGCUGGGG
Consider B2, for which, in the data set with GST-TRF2 [1], the binding result was “binds”.

B3: TERRA-mut (ssRNA)
RNA: UUACCGUUACCGUUACCGUUACCG
With B3, the binding result with GST-TRF2 [2] is given as “no binding”.
